PMC11578894

Target: His6–Gp54^Bas11 (phage Bas11)
Assay: ITC; CapRel^SJ46 in the syringe at 200 µM titrated into Gp54^Bas11 in the cell at 10 µM (Gp54^Bas11(G24D) was used at 260 µM); 30 °C; 50 mM HEPES pH 7.5, 500 mM KCl, 500 mM NaCl, 2 mM MgCl2, 1 mM TCEP

His6–MBP–CapRel^SJ46 (natural protein) showed a Kd of 800 nM and a stoichiometry N of 1.
